According to patent US20080213817A1 (published 2008):

Biological target: T1, mitogen-activated protein kinase/ERK kinase kinase 1 (MEKK1) (mouse, UniProt P53349 2-1493)
T1 construct: Endogenous protein co-immunoprecipitated from mouse thymocyte / T cell lysates, not a recombinant construct; also called MEK kinase 1; MAPK/ERK kinase kinase 1
T1 sequence (looked up): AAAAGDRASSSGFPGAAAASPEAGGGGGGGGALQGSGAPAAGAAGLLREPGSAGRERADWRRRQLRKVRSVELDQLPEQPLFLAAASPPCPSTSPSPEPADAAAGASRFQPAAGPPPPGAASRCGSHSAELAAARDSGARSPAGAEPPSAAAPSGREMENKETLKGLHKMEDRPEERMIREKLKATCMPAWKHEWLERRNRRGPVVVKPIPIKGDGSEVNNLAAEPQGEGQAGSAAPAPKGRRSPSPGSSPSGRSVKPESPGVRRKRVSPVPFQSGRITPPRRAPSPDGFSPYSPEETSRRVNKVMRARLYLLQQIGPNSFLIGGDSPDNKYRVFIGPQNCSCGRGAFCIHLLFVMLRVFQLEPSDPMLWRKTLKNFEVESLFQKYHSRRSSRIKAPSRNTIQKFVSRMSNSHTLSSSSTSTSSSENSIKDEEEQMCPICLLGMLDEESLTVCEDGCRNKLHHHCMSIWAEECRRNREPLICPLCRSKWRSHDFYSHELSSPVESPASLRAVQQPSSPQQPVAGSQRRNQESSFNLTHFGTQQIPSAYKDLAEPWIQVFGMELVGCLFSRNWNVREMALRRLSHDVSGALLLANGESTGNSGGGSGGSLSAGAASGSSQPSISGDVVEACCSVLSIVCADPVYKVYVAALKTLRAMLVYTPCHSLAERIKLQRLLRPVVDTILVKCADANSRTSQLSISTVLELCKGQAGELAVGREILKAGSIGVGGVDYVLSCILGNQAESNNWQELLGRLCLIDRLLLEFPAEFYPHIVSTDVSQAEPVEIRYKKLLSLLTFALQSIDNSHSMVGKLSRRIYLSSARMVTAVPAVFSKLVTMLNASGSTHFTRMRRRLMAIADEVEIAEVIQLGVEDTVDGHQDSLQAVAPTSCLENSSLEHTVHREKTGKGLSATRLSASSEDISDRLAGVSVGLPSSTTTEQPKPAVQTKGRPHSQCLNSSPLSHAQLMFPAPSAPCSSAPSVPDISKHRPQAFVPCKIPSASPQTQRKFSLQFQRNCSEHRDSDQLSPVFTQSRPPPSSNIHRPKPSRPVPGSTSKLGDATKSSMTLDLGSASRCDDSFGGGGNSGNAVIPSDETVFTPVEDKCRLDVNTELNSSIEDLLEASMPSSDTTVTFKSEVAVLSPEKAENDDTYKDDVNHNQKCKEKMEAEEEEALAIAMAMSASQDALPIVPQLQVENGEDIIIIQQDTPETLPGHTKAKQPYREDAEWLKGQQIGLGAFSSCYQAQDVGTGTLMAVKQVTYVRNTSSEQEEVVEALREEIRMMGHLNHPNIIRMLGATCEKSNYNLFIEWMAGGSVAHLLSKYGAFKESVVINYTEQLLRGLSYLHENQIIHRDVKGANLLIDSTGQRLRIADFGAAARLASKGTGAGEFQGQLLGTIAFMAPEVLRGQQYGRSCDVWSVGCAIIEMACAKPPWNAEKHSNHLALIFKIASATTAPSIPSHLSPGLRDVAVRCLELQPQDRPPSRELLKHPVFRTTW
Assay: co-immunoprecipitation (summary of the results)

binding result: binds
B1: E3 ubiquitin ligase Itch (enzyme)
chain: not shown
notes: Endogenous protein from mouse thymocytes / T cells; also called Itchy E3 ubiquitin protein ligase; AIP4
